# Experimental data reported in US20230049152A1 (Genentech, published 2023).
# T1: human CCR3 (human, UniProt P51677 1-355)
# T1 construct: whole, on cells; transiently expressed on HEK293 cells
# T1 sequence (looked up): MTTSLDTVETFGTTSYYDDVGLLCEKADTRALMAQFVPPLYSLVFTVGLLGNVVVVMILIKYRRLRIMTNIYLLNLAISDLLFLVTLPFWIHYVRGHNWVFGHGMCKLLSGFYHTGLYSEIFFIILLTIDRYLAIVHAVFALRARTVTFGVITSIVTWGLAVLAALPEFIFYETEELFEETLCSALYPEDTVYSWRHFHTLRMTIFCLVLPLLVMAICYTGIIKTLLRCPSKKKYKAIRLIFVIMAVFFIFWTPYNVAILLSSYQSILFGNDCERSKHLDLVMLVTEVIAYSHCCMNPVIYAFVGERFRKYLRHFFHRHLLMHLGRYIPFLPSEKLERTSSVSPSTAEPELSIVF
# T2: human ACKR2 (human, UniProt O00590 1-384)
# T2 construct: whole, on cells; transiently expressed on HEK293 cells
# T2 sequence (looked up): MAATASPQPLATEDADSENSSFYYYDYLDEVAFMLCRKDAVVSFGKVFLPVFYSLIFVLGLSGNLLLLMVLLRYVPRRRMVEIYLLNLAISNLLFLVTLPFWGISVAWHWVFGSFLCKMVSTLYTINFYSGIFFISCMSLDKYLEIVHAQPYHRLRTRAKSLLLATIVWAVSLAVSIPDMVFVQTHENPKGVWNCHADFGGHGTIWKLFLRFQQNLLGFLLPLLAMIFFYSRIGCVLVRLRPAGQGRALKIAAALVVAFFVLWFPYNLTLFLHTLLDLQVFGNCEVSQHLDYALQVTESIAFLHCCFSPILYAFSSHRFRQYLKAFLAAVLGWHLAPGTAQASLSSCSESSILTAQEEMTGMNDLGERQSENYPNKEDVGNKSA
# Columns and labels:
# [1] = target: T3, human CCR8 (human, UniProt P51685 1-355); assay: flow cytometry, 2 ug/mL mAb, Treg cells of human colorectal dissociated tumor cells
# T3 construct: the assay field says which; also called hCCR8; huCCR8
# Protocol: The mAbs were evaluated for binding to regulatory T cells (Treg cells or Tregs) by Fluorescence-Activated Cell Sorting (FACS) flow cytometry. Human colorectal dissociated tumor cells (DTC) (Discovery Life Sciences) were thawed according to vendor's protocol. Cells were surface stained with eFluor 780-conjugated Fixable Viability Dye (ThermoFisher Scientific) and 2 ug/mL mAb specific for CCR8, OX40 (positive control), Herceptin (negative control), or anti-hIgG (negative control) for 20 min at 4° C. followed by secondary detection with AF647-conjugated AffiniPure F(ab′)2 Fragment Goat anti-Human IgG, Fcg fragment-specific (Jackson ImmunoResearch) for 10 min at 4° C. Cells were then intracellularly stained using the eBioscience Foxp3/Transcription Factor Staining Buffer Set (ThermoFisher Scientific) according to the manufacturer's protocol. […] Shown in FIG. 1 are mean fluorescent intensity (MFI) values for CD8 T cells (defined as CD45+CD14−CD3+CD8+CD4−) (circles, ◯), conventional CD4 T cells (defined as CD45+CD14−CD3+CD8−CD4+FOXP3−) (squares, □), and Treg cells (defined as CD45+CD14−CD3+CD8−CD4+FOXP3+) (triangles, ▴). Three of the five CCR8 mAb clones specifically stained Treg cells and not conventional CD4 or CD8 T cells and were ranked according to CCR8 MFI, greater than 500 MFI: hu.Ab4.H1L1>hu.Ab5.H1L1>hu.Ab3.H1L1. Upon confirmation that these three CCR8 mAb clones, namely, hu.Ab3.H1L1, hu.Ab4.H1L1, and hu.Ab5.H1L1, also retained human-cyno cross-reactivity (differences less than 5-fold on human and cyno CCR8 CHO cells), these antibodies carried forward for further exploration.
# [2] = target: T1, human CCR3; assay: flow cytometry, HEK293 with N-term FLAG-tagged human CCR3, procedure of FIG. 4
# Source text: (§1) To confirm the selectivity to CCR8, the binding of hu.Ab3.H1L1, hu.Ab4.H1L1, and hu.Ab5.H1L1, as well as the Yoshida humanized anti-human CCR8, murine anti-human CCR8 mAb L263G8 (Biolegend, Commercial Ab) and murine anti-human CCR8 mAb 433H (BD Biosciences, Commercial Ab), were characterized by flow cytometry on HEK293 cells that were transiently transfected with plasmids encoding for FLAG-tagged other related human GPCRs (CCR2-5, CXCR4, ACKR2, and ACKR4). Cell surface expression of each GPCR was confirmed by staining with an anti-FLAG antibody control. In particular, HEK293 cells were transfected with N-term FLAG-tagged human CCR2, CCR3, CCR4, CCR5, CXCR4, ACKR2, ACKR4, hCCR8 constructs, or with a Mock construct using transIT X2 (reagent:DNA=3:1) for 24 hours, and surface stained with various anti-hCCR8 monoclonal antibodies at 5 ug/ml, or rabbit anti-Flag pAb (Sigma) followed by AF647-anti-hIgG or AF647-anti-RbIgG respectively. Antibodies hu.Ab4.H1L1, and hu.Ab5.H1L1, only stained the hCCR8-containing cells, confirming their specificity to hCCR8. […] Thus, the CCR8 selective hu.Ab4.H1L1 and hu.Ab5.H1L1 antibodies with the best ADCC activities were carried forward.
# (§2) To reconfirm that the Ab4 and Ab5 variants remained selective to CCR8 compared to the corresponding HIL1 variants, binding was analyzed by flow cytometry following the procedure as described for FIG. 4A and FIG. 4B. […]
# [3] = target: T2, human ACKR2; assay: flow cytometry, HEK293 with N-term FLAG-tagged human ACKR2, procedure of FIG. 4
# Source text: as §1, §2
# [4] = target: T4, GST-FcgR3a.V158 (UniProt P08637 17-208, limits assumed); assay: ELISA, GST-FcgR3a.V158 captured by anti-GST antibody
# T4 construct: Captured by anti-GST antibody on ELISA plate; also called FcgR3a.V158 protein; Fcgamma RIIIa V158; not shown: GST tag
# Protocol: The binding of fucosylated and afucosylated variants of hu.Ab5.H13L1 and hu.Ab4.H12L3 to both FcgR3a proteins by ELISA was studied. Briefly, an anti-GST antibody was coated on Nunc Maxisorp plates. GST-FcgR3a.V158 and GST-FcgR3a.F158 were captured at 500 ng/mL. Plates were then washed and then serially diluted anti-CCR8 antibodies starting at 100 ug/mL were incubated on the plate for 1 hour at room temperature. Plates were washed and bound antibody was detected by a HRP-conjugated anti-human IgG secondary antibody. Absorbance at 450 nm was measured by a plate reader. The data were fitted using a 4-parameter logistic curve in Softmax Pro.
# T4 sequence (P08637 17-208 F176V limits assumed): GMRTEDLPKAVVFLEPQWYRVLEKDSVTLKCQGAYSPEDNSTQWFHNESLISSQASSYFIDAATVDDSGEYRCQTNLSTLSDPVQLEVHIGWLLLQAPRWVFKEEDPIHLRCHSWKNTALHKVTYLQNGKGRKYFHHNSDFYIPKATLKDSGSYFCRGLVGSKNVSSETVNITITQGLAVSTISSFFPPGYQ
Binder,MFI [1],binding result [2],binding result [3],EC50 [4]
"hu.Ab5.H1L1 (antibody, human IgG1, kappa) heavy: not shown light: DIQVTQSPSSLSASVGDRVTITCQASENIANALAWYQQKPGKPPKFLIYGASNLASGVPSRFSGSGSGTDFTFTISSLQPEDIATYYCQQAYYGNSFVEGTFGGGTKVEIKRTVAAPSVFIFPPSDEQLKSGTASVVCLLNNFYPREAKVQWKVDNALQSGNSQESVTEQDSKDSTYSLSSTLTLSKADYEKHKVYACEVTHQGLSSPVTKSFNRGEC",> 500 MFI,–,–,–
"hu.Ab4.H1L1 (antibody, human IgG1, kappa, also called hu.Ab4.H1Ll) heavy: not shown light: DYQMTQSPSSLSASVGDRVTITCQASQSISSYLSWYQQKPGKRPKLLIYKASTLASGVPSRFSGSGSGTDFTLTISSLQPEDFATYYCQQGYTSSNIDNIFGGGTKVEIKRTVAAPSVFIFPPSDEQLKSGTASVVCLLNNFYPREAKVQWKVDNALQSGNSQESVTEQDSKDSTYSLSSTLTLSKADYEKHKVYACEVTHQGLSSPVTKSFNRGEC",> 500 MFI,–,–,–

# Results, then the binder that gave them:
MFI [1],binding result [2],binding result [3],EC50 [4],Binder
–,no binding (tested: 5 ug/ml),no binding (tested: 5 ug/ml),0.39 µg/mL,"hu.Ab5.H13L1 (antibody, human IgG1, kappa, fucosylated human IgG1; also called Ab5 variant) heavy: not shown light: DIQVTQSPSSLSASVGDRVTITCQASENIANALAWYQQKPGKPPKFLIYGASNLASGVPSRFSGSGSGTDFTFTISSLQPEDIATYYCQQAYYGNSFVEGTFGGGTKVEIKRTVAAPSVFIFPPSDEQLKSGTASVVCLLNNFYPREAKVQWKVDNALQSGNSQESVTEQDSKDSTYSLSSTLTLSKADYEKHKVYACEVTHQGLSSPVTKSFNRGEC"
–,no binding (tested: 5 ug/ml),no binding (tested: 5 ug/ml),0.388 µg/mL,"hu.Ab4.H12L3 (antibody, human IgG1, kappa, fucosylated human IgG1; also called huCCR8-Ab4.H12L3.hIgG1; Ab4 variant) heavy: not shown light: DYQMTQSPSSLSASVGDRVTITCQASQSISSYLSWYQQKPGKAPKLLIYKASTLASGVPSRFSGSGSGTDFTLTISSLQPEDFATYYCQQGYTSSNIDNIFGGGTKVEIKRTVAAPSVFIFPPSDEQLKSGTASVVCLLNNFYPREAKVQWKVDNALQSGNSQESVTEQDSKDSTYSLSSTLTLSKADYEKHKVYACEVTHQGLSSPVTKSFNRGEC"
